Data: paper PMC7311433, “Two novel fish paralogs provide insights into the Rid family of imine deaminases active in pre-empting enamine/imine metabolic damage” (Scientific Reports, 2020)

Tests used:
[1] = molecular target: Salmo salar RidA-2 (Salmo salar); assay: native MS; ESI mass spectra of 0.5 mg/mL protein in 10 mM ammonium formate; SsRidA-2 also after ultrafiltration on 30 kDa-cutoff membranes (retentate)
[2] = molecular target: Salmo salar RidA-2 (Salmo salar); assay: SEC-MALS; 200 uL of 1 mg/mL protein on Superdex 75 10/300 GL in physiological saline (0.9% w/v NaCl), 0.5 mL/min, mobile phase pH 5.8; MALS and DLS detection
[3] = molecular target: Salmo salar RidA-2 (Salmo salar); assay: crystal structure; sitting drop at 20 °C, protein 7.5 mg/mL in 154 mM NaCl; SsRidA-1 from 0.2 M NaCl, 0.1 M sodium acetate pH 5.0, 20% PEG 6000; SsRidA-2 from 0.1 M ammonium sulfate, 0.1 M sodium acetate, 25% PEG 4000; data at 100 K
[4] = molecular target: Salmo salar RidA-1 (Salmo salar); assay: native MS; ESI mass spectra of 0.5 mg/mL protein in 10 mM ammonium formate; SsRidA-2 also after ultrafiltration on 30 kDa-cutoff membranes (retentate)
[5] = molecular target: Salmo salar RidA-1 (Salmo salar); assay: SEC-MALS; 200 uL of 1 mg/mL protein on Superdex 75 10/300 GL in physiological saline (0.9% w/v NaCl), 0.5 mL/min, mobile phase pH 5.8; MALS and DLS detection
[6] = molecular target: Salmo salar RidA-1 (Salmo salar); assay: crystal structure; sitting drop at 20 °C, protein 7.5 mg/mL in 154 mM NaCl; SsRidA-1 from 0.2 M NaCl, 0.1 M sodium acetate pH 5.0, 20% PEG 6000; SsRidA-2 from 0.1 M ammonium sulfate, 0.1 M sodium acetate, 25% PEG 4000; data at 100 K
[7] = molecular target: the molecule itself; assay: SEC-MALS; 200 uL of 1 mg/mL protein on Superdex 75 10/300 GL in physiological saline (0.9% w/v NaCl), 0.5 mL/min, mobile phase pH 5.8; MALS and DLS detection

## Salmo salar RidA-2 (enzyme)
[1]
  stoichiometry N: 3
[2]
  stoichiometry N: 3
[3]
  stoichiometry N: 3

## Salmo salar RidA-1 (enzyme)
[4]
  stoichiometry N: 3
[5]
  stoichiometry N: 3
[6]
  stoichiometry N: 3

B1: goat RidA (UK114) (enzyme, goat (Capra hircus))
chain: SSLVRRIISTAKAPAAIGPYSQAVLVDRTIYISGQLGMDPASGQLVPGGVVEEAKQALTNIGEILKAAGCDFTNVVKATVLLADINDFSAVNDVYKQYFQSSFPARAAYQVAALPKGGRVEIEAIAVQGPLTTASL
notes: also called ChRidA; goat UK114
[7]
  stoichiometry N: 3
